Experimental data published in patent US20200390902A1, “Antibody-Drug Conjugates Targeted at Human Aspartyl-(Asparaginyl)-B-Hydroxylase (HAAH)” (Panacea Pharmaceuticals, Inc., priority 2017, published 2020).

Experiments:
[1] = biological target: T1, HAAH catalytic domain (human, UniProt Q12797); assay: ELISA on plates coated with HAAH catalytic domain; [Protein] 11.1 mg/ml
T1 sequence: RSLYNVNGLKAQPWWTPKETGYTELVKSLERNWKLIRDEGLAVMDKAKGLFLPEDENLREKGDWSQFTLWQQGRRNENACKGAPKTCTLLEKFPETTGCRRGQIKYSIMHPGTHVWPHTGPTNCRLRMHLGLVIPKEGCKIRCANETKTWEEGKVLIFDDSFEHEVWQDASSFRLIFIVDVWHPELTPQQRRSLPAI

[2] = biological target: H460 lysate; assay: ELISA on plates coated with H460 lysate, percent of loading amount bound
[3] = biological target: T1, HAAH catalytic domain; assay: ELISA on plates coated with HAAH catalytic domain
Method: The catalytic domain of HAAH (HAAH-cat) is exposed at the surface of HAAH-expressing cancer cells. The binding of SNS622-MC-DM1 at different drug-antibody ratio (DAR) and pH to HAAH-cat was measured using IgG1λ as control. The plates were coated with HAAH by treating with […] HAAH catalytic domain overnight. Following blocking with 1% Non-Fat Dry Milk in PBS for one hour, the plates were incubated for 45 minutes at 37° C. with 11.1 mg/ml IgG1λ; 9.6 mg/ml SNS622; 4.8 mg/ml SNS622-MC-DM1 at DAR 2.5, pH 7.0; 5.9 mg/ml SNS622-MC-DM1 at DAR 2.5, pH8.0; 6.1 mg/ml SNS622-DM1 at DAR 5.0, pH 7.0; 5.7 mg/ml SNS622-MC-DM1 at DAR 5.0, pH8.0; 4.1 mg/ml SNS622-DM1 at DAR 10.0, pH7.0; or 4.4 mg/ml SNS622-MC-DM1 at DAR 10.0, pH8.0. Following 5 PBS rinses the plates were incubated with 1:100 goat anti-human IgG (8)-HRP for 30 minutes at 37° C., Following five PBS rinses TMB substrate was added, and after a 15-minute incubation at room temperature, Stop solution was added to terminate the reactions. The plates were read at 450 nm using a 96-well plate reader (ELx808, BioTek). The binding results are shown below in Table VI

[4] = biological target: T2, Human aspartyl (asparaginyl) β-hydroxylase (HAAH) (human, UniProt Q12797); assay: immunoassay on fixed H460 cells; printed as 'binding affinities'
T2 sequence: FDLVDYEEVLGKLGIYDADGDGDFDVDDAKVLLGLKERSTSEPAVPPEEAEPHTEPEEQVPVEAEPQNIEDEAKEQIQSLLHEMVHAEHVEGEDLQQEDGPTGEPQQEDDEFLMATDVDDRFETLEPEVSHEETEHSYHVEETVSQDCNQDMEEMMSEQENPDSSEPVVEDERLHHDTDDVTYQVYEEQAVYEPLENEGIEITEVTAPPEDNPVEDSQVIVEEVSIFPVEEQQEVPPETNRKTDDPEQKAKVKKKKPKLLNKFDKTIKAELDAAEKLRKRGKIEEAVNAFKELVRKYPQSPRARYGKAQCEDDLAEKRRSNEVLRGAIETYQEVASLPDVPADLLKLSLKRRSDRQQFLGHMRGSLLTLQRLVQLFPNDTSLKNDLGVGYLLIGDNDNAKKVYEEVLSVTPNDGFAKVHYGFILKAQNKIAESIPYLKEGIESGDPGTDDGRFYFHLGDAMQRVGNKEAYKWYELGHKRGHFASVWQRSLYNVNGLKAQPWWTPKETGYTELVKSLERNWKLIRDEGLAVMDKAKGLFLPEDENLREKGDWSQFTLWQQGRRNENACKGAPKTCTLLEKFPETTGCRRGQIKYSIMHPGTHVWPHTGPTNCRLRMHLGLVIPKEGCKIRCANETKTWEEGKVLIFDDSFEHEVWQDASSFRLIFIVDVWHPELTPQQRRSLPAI

[5] = biological target: Human aspartyl (asparaginyl) β-hydroxylase (HAAH) (human) (UniProt Q12797)
[6] = biological target: Human aspartyl (asparaginyl) β-hydroxylase (HAAH) (human) (UniProt Q12797); remark: listed apart in the source
[7] = biological target: Human aspartyl (asparaginyl) β-hydroxylase (HAAH) (human) (UniProt Q12797); remark: listed apart in the source
[8] = biological target: Human aspartyl (asparaginyl) β-hydroxylase (HAAH) (human) (UniProt Q12797); remark: listed apart in the source
[9] = biological target: Human aspartyl (asparaginyl) β-hydroxylase (HAAH) (human) (UniProt Q12797); remark: listed apart in the source

IgG1λ (non-specific monoclonal antibody)
[Average]* [1]: < 0.001 mg/mL
Percent binding [2]: < 0.002%
% Binding [3]: 0.01%

IgG1λ-MC-DM1 (non-specific ADC) (antibody)
Percent binding [2]: < 0.002%

B1: SNS622-MC-DM1 (antibody, V domains shown)
VH: QVQLQQSGPGLVKPSQTLSLTCAISGDSVSSNSAAWNWIRQSPSRGLEWLGRTYYRSKWYNDYAVSVKSRITINPDTSKNQFSLQLNSVTPEDTAVYYCARTGYSSSWVVNFDYWGQGTLVTVSS
VL: QPVLTQSPSASGTPGQRVTISCSGSSSNIGSNYVYWYQQLPGTAPKLLIYKNNQRPSGVPDRFSGSKSGTAASLAISGLQSEDEADYYCAAWDDSLRGYVFGTGTKLTVLG
modifications: MC-DM1 (maleimidocaproyl-mertansine) on cysteine thiols of reduced disulfide bonds, positions not given; MC-DM1 (maleimidocaproyl-mertansine) on cysteine thiols of reduced disulfide bonds, positions not given
Kd [4]: ~0.1 nM
IC50 of MTS, H460 cells, 72 h [5]: 64 nM
LC50 of LDH, H460 cells, 72 h [5]: 36 nM
LDH release, H460 cells, 32 nM, 72 h (× (over untreated H460 cells)) [6]: 39
Percent binding [2]: 107%
MTS assay, MIA-PaCa-2 ASPH cells, 10, 20 or 50 nM, 48 h (% reduction of relative absorbance) [7]: 16
EC50, H460 cell viability, MTS assay, 24 h [8]: 15 nM

B2: SNS622 (antibody, V domains shown)
VH: QVQLQQSGPGLVKPSQTLSLTCAISGDSVSSNSAAWNWIRQSPSRGLEWLGRTYYRSKWYNDYAVSVKSRITINPDTSKNQFSLQLNSVTPEDTAVYYCARTGYSSSWVVNFDYWGQGTLVTVSS
VL: QPVLTQSPSASGTPGQRVTISCSGSSSNIGSNYVYWYQQLPGTAPKLLIYKNNQRPSGVPDRFSGSKSGTAASLAISGLQSEDEADYYCAAWDDSLRGYVFGTGTKLTVLG
Percent binding [2]: 92%
% Binding [3]: 97.6%

B3: SNS622-DM1A2 (antibody, V domains shown)
VH: QVQLQQSGPGLVKPSQTLSLTCAISGDSVSSNSAAWNWIRQSPSRGLEWLGRTYYRSKWYNDYAVSVKSRITINPDTSKNQFSLQLNSVTPEDTAVYYCARTGYSSSWVVNFDYWGQGTLVTVSS
VL: QPVLTQSPSASGTPGQRVTISCSGSSSNIGSNYVYWYQQLPGTAPKLLIYKNNQRPSGVPDRFSGSKSGTAASLAISGLQSEDEADYYCAAWDDSLRGYVFGTGTKLTVLG
modifications: MC-DM1 on cysteine thiols of reduced disulfide bonds, positions not given; reaction DAR 2.5:1, pH 8, final DAR 2.10; MC-DM1 on cysteine thiols of reduced disulfide bonds, positions not given
% Binding [3]: 84.8%

B4: SNS622-DM1C1 (antibody, V domains shown)
VH: QVQLQQSGPGLVKPSQTLSLTCAISGDSVSSNSAAWNWIRQSPSRGLEWLGRTYYRSKWYNDYAVSVKSRITINPDTSKNQFSLQLNSVTPEDTAVYYCARTGYSSSWVVNFDYWGQGTLVTVSS
VL: QPVLTQSPSASGTPGQRVTISCSGSSSNIGSNYVYWYQQLPGTAPKLLIYKNNQRPSGVPDRFSGSKSGTAASLAISGLQSEDEADYYCAAWDDSLRGYVFGTGTKLTVLG
modifications: MC-DM1 on cysteine thiols of reduced disulfide bonds, positions not given; reaction DAR 10:1, pH 7, final DAR 5.08; MC-DM1 on cysteine thiols of reduced disulfide bonds, positions not given
% Binding [3]: 11.7%

B5: SNS622-MC-PEG4-vc-PAB-DMEA-DUO (antibody, V domains shown)
VH: QVQLQQSGPGLVKPSQTLSLTCAISGDSVSSNSAAWNWIRQSPSRGLEWLGRTYYRSKWYNDYAVSVKSRITINPDTSKNQFSLQLNSVTPEDTAVYYCARTGYSSSWVVNFDYWGQGTLVTVSS
VL: QPVLTQSPSASGTPGQRVTISCSGSSSNIGSNYVYWYQQLPGTAPKLLIYKNNQRPSGVPDRFSGSKSGTAASLAISGLQSEDEADYYCAAWDDSLRGYVFGTGTKLTVLG
modifications: MC-PEG4-vc-PAB-DMEA-duocarmycin on cysteine thiols of reduced disulfide bonds, positions not given; reaction DAR 2.2:1, final DAR 1.92:1; MC-PEG4-vc-PAB-DMEA-duocarmycin on cysteine thiols of reduced disulfide bonds, positions not given
Kd [4]: ~0.5 nM
IC50, MOLM-14 cell viability, MTS assay, 24 h [9]: 60 nM
EC50, H460 cell viability, MTS assay, 24 h [8]: 300 nM
